# Experimental data: PMC10128029
# How the values were obtained:
# Assay in all cases: EMSA
# [1] = test system: TilS WT (Burkholderia cenocepacia HI2424); details: 10 mM Mg2+; unmodified in vitro transcript; EMSA: 3.5 nM 32P-tRNA, 220 nM-39.0 µM TilS, 100 mM Tris-HCl pH 7.8, 5 mM DTT, 10 mM MgCl2, 10 mM KCl, 10% glycerol, 37 C, 30 min; native 10% PAGE
# [2] = test system: TilS A244T (Burkholderia cenocepacia HI2424); details: unmodified in vitro transcript; EMSA: 3.5 nM 32P-tRNA, 220 nM-39.0 µM TilS, 100 mM Tris-HCl pH 7.8, 5 mM DTT, 10 mM MgCl2, 10 mM KCl, 10% glycerol, 37 C, 30 min; native 10% PAGE
# [3] = test system: TilS P421L (Burkholderia cenocepacia HI2424); details: unmodified in vitro transcript; EMSA: 3.5 nM 32P-tRNA, 220 nM-39.0 µM TilS, 100 mM Tris-HCl pH 7.8, 5 mM DTT, 10 mM MgCl2, 10 mM KCl, 10% glycerol, 37 C, 30 min; native 10% PAGE
# [4] = test system: TilS N445K (Burkholderia cenocepacia HI2424); details: unmodified in vitro transcript; EMSA: 3.5 nM 32P-tRNA, 220 nM-39.0 µM TilS, 100 mM Tris-HCl pH 7.8, 5 mM DTT, 10 mM MgCl2, 10 mM KCl, 10% glycerol, 37 C, 30 min; native 10% PAGE
# [5] = test system: TilS N274Y (Burkholderia cenocepacia HI2424); details: unmodified in vitro transcript; EMSA: 3.5 nM 32P-tRNA, 220 nM-39.0 µM TilS, 100 mM Tris-HCl pH 7.8, 5 mM DTT, 10 mM MgCl2, 10 mM KCl, 10% glycerol, 37 C, 30 min; native 10% PAGE
substance,measurement,setting,value
tRNAIle2 (CAU),Kd,[1],2.6 µM
same,Kd,[2],4.6 µM
same,Kd,[3],4.5 µM
same,Kd,[4],3.1 µM
same,Kd,[5],3.3 µM
